Measurements taken from the supplement of paper PMC9233669.
Fewer inactive variants are shown than the library holds.

Key:
biotinyl-Val-oxazolone = assay: self-aminoacylation, catalytic enhancement (BVO) (fold over background); higher = more active; k-Seq, kA / k0A0; sequences stand for … in GGGAAUGGAUCCACAUCUACGAAUUC…UUCACUGCAGACUUGACGAAGCUG
Method in brief: (§1)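 Working in 50 μL HEPES/NaCl/KCl/MgCl2/CaCl2 buffer with 5% acetonitrile at pH 6.9–7.0, mutagenized RNA pools (0.43 μM; 21-nt variable region) were reacted with 2–1250 μM of each biotinyl-aminoacyl-oxazolone for 90 minutes at room temperature. Streptavidin capture followed, with quantification by triplicate qPCR and Illumina sequencing. Catalytic enhancement is reported as median kA over the uncatalyzed rate, the low-activity peak of a bimodal Gaussian fit to the data.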

biotinyl-Trp-oxazolone = assay: self-aminoacylation, catalytic enhancement (BWO) (fold over background); higher = more active; k-Seq, kA / k0A0; sequences stand for … in GGGAAUGGAUCCACAUCUACGAAUUC…UUCACUGCAGACUUGACGAAGCUG
Method in brief: as §1

biotinyl-Met-oxazolone = assay: self-aminoacylation, catalytic enhancement (BMO) (fold over background); higher = more active; k-Seq, kA / k0A0; sequences stand for … in GGGAAUGGAUCCACAUCUACGAAUUC…UUCACUGCAGACUUGACGAAGCUG
Method in brief: as §1

biotinyl-Ile-oxazolone = assay: self-aminoacylation, catalytic enhancement (BIO) (fold over background); higher = more active; k-Seq, kA / k0A0; sequences stand for … in GGGAAUGGAUCCACAUCUACGAAUUC…UUCACUGCAGACUUGACGAAGCUG
Method in brief: as §1

biotinyl-Leu-oxazolone = assay: self-aminoacylation, catalytic enhancement (BLO) (fold over background); higher = more active; k-Seq, kA / k0A0; sequences stand for … in GGGAAUGGAUCCACAUCUACGAAUUC…UUCACUGCAGACUUGACGAAGCUG
Method in brief: as §1

biotinyl-Phe-oxazolone = assay: self-aminoacylation, catalytic enhancement (BFO) (fold over background); higher = more active; k-Seq, kA / k0A0; sequences stand for … in GGGAAUGGAUCCACAUCUACGAAUUC…UUCACUGCAGACUUGACGAAGCUG
Method in brief: as §1

Sequence	self-aminoacylation (biotinyl-Val-oxazolone)	self-aminoacylation (biotinyl-Trp-oxazolone)	self-aminoacylation (biotinyl-Met-oxazolone)	self-aminoacylation (biotinyl-Ile-oxazolone)	self-aminoacylation (biotinyl-Leu-oxazolone)	self-aminoacylation (biotinyl-Phe-oxazolone)
CUACACUUCAGGCAAUCGGUC [Fam1B.1 aminoacylation ribozyme variant]	1.01	0.839	1.01	1	0.97	1.49
CUACACUUCCAGCAAUCGGUC [Fam1B.1 aminoacylation ribozyme variant]	1.07	0.707	0.787	1.07	1.1	0.865
CUACAUAAAACAAUCGGUCUG [Fam1A.1 aminoacylation ribozyme variant]	0.799	0.539	0.934	0.808	0.738	0.674
CUACAUCAAACAAUCCGUCUG [Fam1A.1 aminoacylation ribozyme variant]	0.877	0.615	0.759	0.905	0.755	0.983
CUACAUCAAACAAUCGGUCUA [Fam1A.1 aminoacylation ribozyme variant]	0.922	0.755	0.802	0.669	0.58	1.61
CUACAUCGAACAAUCGGUCUG [Fam1A.1 aminoacylation ribozyme variant]	0.942	1.17	0.922	0.909	0.946	1.04
CUACAUGAAACAAUCGGUCUG [Fam1A.1 aminoacylation ribozyme variant]	0.803	0.772	0.868	0.828	0.721	0.716
CUACCUCAAACAAACGGUCUG [Fam1A.1 aminoacylation ribozyme variant]	1.03	0.615	0.85	0.919	1.08	1.33
CUACCUCAAACAAUAGGUCUG [Fam1A.1 aminoacylation ribozyme variant]	1	0.691	0.838	0.959	0.846	1.08
CUACCUCAAACAAUCGGACUG [Fam1A.1 aminoacylation ribozyme variant]	0.833	1.05	0.915	0.872	0.614	1.27
CUACCUCAAACAAUCGGUCGG [Fam1A.1 aminoacylation ribozyme variant]	1.25	1.78	1.5	1.28	1.55	1.56
CUACCUCAAACAAUCGGUUUG [Fam1A.1 aminoacylation ribozyme variant]	1.16	1.56	0.938	0.904	0.715	2.48
CUACCUCAAACAAUCGUUCUG [Fam1A.1 aminoacylation ribozyme variant]	0.672	0.863	0.525	0.711	0.588	0.62
CUACCUCAACCAAUCGGUCUG [Fam1A.1 aminoacylation ribozyme variant]	0.891	0.886	0.811	0.766	0.671	1.08
CUACCUCUAACAAUCGGUCUG [Fam1A.1 aminoacylation ribozyme variant]	0.739	0.565	0.915	0.8	0.919	0.97
CUACGUCAAACAAUCGGUCAG [Fam1A.1 aminoacylation ribozyme variant]	0.797	0.909	0.917	0.855	1.12	0.761
CUACGUCAAACAAUCGUUCUG [Fam1A.1 aminoacylation ribozyme variant]	0.813	0.856	0.854	0.789	0.822	0.508
CUACGUCAAACAAUGGGUCUG [Fam1A.1 aminoacylation ribozyme variant]	1.35	1.18	1.22	1.38	1.62	2.25
CUACGUCAAACAGUCGGUCUG [Fam1A.1 aminoacylation ribozyme variant]	1.52	1.14	1.25	1.14	1.75	3.92
CUACGUCAUACAAUCGGUCUG [Fam1A.1 aminoacylation ribozyme variant]	1.09	0.994	1.1	1.1	1.27	1.1
CUACUACAAACAACCGGUCUG [Fam1A.1 aminoacylation ribozyme variant]	1.14	0.954	0.601	1.19	0.845	1.12
CUACUACAAACAAGCGGUCUG [Fam1A.1 aminoacylation ribozyme variant]	1.2	0.883	1.1	1.11	1.25	0.606
CUACUACAAACAAUAGGUCUG [Fam1A.1 aminoacylation ribozyme variant]	0.94	0.456	0.635	0.826	0.718	0.827
CUACUACAAACAAUCCGUCUG [Fam1A.1 aminoacylation ribozyme variant]	0.832	0.855	0.728	0.717	0.68	0.545
CUACUACAAACAAUCGGUCUC [Fam1A.1 aminoacylation ribozyme variant]	0.59	0.673	0.53	0.647	0.418	1.05
CUACUACAAACAAUGGGUCUG [Fam1A.1 aminoacylation ribozyme variant]	1.14	1.69	1.37	1.07	1.15	0.955

Sequence	self-aminoacylation (biotinyl-Val-oxazolone)	self-aminoacylation (biotinyl-Trp-oxazolone)	self-aminoacylation (biotinyl-Met-oxazolone)	self-aminoacylation (biotinyl-Ile-oxazolone)	self-aminoacylation (biotinyl-Leu-oxazolone)	self-aminoacylation (biotinyl-Phe-oxazolone)
CUACUACAAACUAUCGGUCUG [Fam1A.1 aminoacylation ribozyme variant]	0.839	0.717	0.949	0.869	0.713	0.752
CUACUCCAAACAAACGGUCUG [Fam1A.1 aminoacylation ribozyme variant]	0.981	0.918	0.531	0.816	0.71	1.09
CUACUCCAAACAAUCGAUCUG [Fam1A.1 aminoacylation ribozyme variant]	0.661	0.384	0.48	0.704	0.533	0.831
CUACUCCAAACAAUCGGACUG [Fam1A.1 aminoacylation ribozyme variant]	0.711	0.909	0.762	0.74	0.6	1.13
CUACUCCAAACAAUUGGUCUG [Fam1A.1 aminoacylation ribozyme variant]	1.03	0.642	1.09	1.13	1.02	0.67
CUACUCCAAACACUCGGUCUG [Fam1A.1 aminoacylation ribozyme variant]	0.962	1.52	0.93	1.12	1.03	1.15
CUACUCCAAACCAUCGGUCUG [Fam1A.1 aminoacylation ribozyme variant]	0.971	1.01	0.961	1.1	1.03	1.16
CUACUCCAAAGAAUCGGUCUG [Fam1A.1 aminoacylation ribozyme variant]	0.764	0.807	0.731	0.927	1.03	0.807
CUACUCCAGACAAUCGGUCUG [Fam1A.1 aminoacylation ribozyme variant]	1.14	0.923	1.29	1	1.07	0.42
CUACUCCAUACAAUCGGUCUG [Fam1A.1 aminoacylation ribozyme variant]	0.751	0.549	0.719	0.833	0.628	0.859
CUACUCUAAACAAUCGGUCUG [Fam1A.1 aminoacylation ribozyme variant]	0.873	0.651	0.776	0.808	0.727	0.77
CUACUGAAAACAAUCGGUCUG [Fam1A.1 aminoacylation ribozyme variant]	0.706	0.78	0.735	0.84	0.708	0.542
CUACUGCCAACAAUCGGUCUG [Fam1A.1 aminoacylation ribozyme variant]	0.744	0.531	0.773	0.744	0.64	0.775
CUACUUAAAACAAUCGGUCUU [Fam1A.1 aminoacylation ribozyme variant]	0.706	0.524	0.799	0.742	0.617	0.533
CUACUUAAAACAAUCGGUUUG [Fam1A.1 aminoacylation ribozyme variant]	0.627	0.596	0.718	0.672	0.621	0.655
CUACUUAAAACAGUCGGUCUG [Fam1A.1 aminoacylation ribozyme variant]	0.78	0.454	0.742	0.799	1.05	0.624
CUACUUCAAAAAAGCGGUCUG [Fam1A.1 aminoacylation ribozyme variant]	0.801	0.633	1.02	0.999	0.966	0.451
CUACUUCAAAAAAUCCGUCUG [Fam1A.1 aminoacylation ribozyme variant]	0.945	0.897	0.854	0.834	0.682	1.02
CUACUUCAAAAAAUCGGUCUG [Fam1A.1 aminoacylation ribozyme variant]	0.795	7.37	0.758	1	0.92	11.8
CUACUUCAAAAAAUCGGUCUU [Fam1A.1 aminoacylation ribozyme variant]	0.807	4.11	0.966	1.02	1.05	5.8
CUACUUCAAAAAAUCUGUCUG [Fam1A.1 aminoacylation ribozyme variant]	0.699	0.797	0.589	0.84	0.61	1.36
CUACUUCAAACAAACAGUCUG [Fam1A.1 aminoacylation ribozyme variant]	0.728	0.534	0.54	0.864	0.671	0.8
CUACUUCAAACAAACGAUCUG [Fam1A.1 aminoacylation ribozyme variant]	0.779	0.336	0.728	0.693	0.569	0.828
CUACUUCAAACAAACGGACUG [Fam1A.1 aminoacylation ribozyme variant]	0.718	0.574	0.473	0.684	0.546	0.548
CUACUUCAAACAAACGGUCUU [Fam1A.1 aminoacylation ribozyme variant]	0.901	0.74	0.982	0.904	0.879	0.824
